The target in experiment [1] is recombinant Antigen 1 (recombinant Ab1 target; recombinant integrin αvβ6 antigen). The experiment is described as follows: saturation binding ELISA.
The target in experiment [2] is Antigen 1 (Ab1 target) expressed on HEK293 / HEK-293F cells. The experiment is described as follows: saturation binding FACS, HEK293 cells.
The next experiment concerns the target T1, recombinant human CD47 (human, UniProt Q08722 19-139, limits assumed).
T1 construct: also called recombinant CD47 antigen
Briefly: saturation binding ELISA.

recombinant Antigen 1 (recombinant Ab1 target; recombinant integrin αvβ6 antigen), sequence (P06756 31-992, chain 1 of 2): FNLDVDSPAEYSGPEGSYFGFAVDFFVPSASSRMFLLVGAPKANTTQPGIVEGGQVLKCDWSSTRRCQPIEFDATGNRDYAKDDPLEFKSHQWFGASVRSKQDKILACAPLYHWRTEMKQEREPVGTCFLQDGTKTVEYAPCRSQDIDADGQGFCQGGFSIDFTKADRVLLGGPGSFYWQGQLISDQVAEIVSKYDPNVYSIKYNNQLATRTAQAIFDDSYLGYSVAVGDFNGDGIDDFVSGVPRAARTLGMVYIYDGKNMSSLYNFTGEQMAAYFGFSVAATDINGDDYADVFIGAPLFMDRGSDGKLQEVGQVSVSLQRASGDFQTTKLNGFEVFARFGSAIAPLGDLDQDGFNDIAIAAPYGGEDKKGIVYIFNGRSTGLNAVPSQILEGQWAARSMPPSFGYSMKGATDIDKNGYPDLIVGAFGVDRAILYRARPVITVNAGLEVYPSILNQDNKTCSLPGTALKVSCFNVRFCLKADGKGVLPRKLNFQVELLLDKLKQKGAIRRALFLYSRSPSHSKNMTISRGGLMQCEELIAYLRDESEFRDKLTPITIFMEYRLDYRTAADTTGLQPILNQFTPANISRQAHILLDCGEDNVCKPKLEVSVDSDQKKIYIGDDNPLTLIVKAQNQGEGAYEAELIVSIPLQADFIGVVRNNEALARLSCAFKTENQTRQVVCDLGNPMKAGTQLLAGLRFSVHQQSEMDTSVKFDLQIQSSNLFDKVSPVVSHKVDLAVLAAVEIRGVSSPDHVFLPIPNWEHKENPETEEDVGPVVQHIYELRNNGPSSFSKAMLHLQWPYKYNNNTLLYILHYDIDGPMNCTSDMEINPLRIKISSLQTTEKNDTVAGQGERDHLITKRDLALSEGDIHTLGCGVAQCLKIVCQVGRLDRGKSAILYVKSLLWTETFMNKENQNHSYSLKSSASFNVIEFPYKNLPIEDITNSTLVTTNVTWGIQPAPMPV
recombinant Antigen 1 (recombinant Ab1 target; recombinant integrin αvβ6 antigen), sequence (P18564 22-709, chain 2 of 2, further chain): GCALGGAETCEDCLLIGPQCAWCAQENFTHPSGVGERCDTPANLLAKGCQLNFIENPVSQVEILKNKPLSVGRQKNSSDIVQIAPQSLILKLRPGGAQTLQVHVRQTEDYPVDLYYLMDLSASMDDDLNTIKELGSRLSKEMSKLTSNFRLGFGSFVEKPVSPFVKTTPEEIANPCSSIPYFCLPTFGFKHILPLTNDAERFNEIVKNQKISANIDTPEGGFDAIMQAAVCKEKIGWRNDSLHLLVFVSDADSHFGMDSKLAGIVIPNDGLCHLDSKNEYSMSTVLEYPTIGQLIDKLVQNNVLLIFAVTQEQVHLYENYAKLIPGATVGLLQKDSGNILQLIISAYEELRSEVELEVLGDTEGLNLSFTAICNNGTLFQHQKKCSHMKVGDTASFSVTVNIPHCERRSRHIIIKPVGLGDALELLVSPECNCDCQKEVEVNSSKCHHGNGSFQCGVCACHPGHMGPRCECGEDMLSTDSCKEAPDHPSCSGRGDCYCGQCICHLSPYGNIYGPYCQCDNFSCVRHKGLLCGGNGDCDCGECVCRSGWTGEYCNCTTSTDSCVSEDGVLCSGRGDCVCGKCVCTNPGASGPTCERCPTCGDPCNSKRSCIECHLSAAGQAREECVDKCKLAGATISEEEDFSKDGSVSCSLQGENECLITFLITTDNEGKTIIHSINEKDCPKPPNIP
Antigen 1 (Ab1 target) expressed on HEK293 / HEK-293F cells, sequence (P06756 31-1048, chain 1 of 2): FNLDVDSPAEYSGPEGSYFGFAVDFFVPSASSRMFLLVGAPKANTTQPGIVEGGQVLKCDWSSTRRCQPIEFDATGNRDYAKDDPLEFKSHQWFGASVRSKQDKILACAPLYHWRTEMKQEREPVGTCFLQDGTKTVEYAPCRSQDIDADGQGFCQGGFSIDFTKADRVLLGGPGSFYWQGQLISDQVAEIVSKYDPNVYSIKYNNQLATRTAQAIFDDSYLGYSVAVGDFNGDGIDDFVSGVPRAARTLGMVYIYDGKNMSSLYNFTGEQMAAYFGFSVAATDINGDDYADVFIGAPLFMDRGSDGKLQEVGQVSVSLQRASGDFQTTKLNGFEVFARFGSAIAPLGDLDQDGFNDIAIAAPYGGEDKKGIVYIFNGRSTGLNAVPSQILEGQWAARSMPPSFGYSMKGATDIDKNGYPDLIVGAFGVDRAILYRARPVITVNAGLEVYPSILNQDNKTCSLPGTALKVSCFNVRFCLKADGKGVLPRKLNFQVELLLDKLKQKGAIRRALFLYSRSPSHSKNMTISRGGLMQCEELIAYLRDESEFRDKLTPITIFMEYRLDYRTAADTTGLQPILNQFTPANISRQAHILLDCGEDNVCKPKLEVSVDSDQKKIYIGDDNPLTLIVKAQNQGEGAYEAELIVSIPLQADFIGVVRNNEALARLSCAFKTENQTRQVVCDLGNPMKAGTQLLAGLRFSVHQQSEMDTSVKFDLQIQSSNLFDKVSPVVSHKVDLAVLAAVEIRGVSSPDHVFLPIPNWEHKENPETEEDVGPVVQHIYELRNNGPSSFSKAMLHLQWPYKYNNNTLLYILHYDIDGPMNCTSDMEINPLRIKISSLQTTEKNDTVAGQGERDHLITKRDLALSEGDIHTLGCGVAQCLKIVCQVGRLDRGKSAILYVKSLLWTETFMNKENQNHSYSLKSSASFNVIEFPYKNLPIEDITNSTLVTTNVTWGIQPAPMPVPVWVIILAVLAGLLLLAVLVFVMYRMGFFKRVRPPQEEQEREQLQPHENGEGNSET
Antigen 1 (Ab1 target) expressed on HEK293 / HEK-293F cells, sequence (P18564 22-788, chain 2 of 2, further chain): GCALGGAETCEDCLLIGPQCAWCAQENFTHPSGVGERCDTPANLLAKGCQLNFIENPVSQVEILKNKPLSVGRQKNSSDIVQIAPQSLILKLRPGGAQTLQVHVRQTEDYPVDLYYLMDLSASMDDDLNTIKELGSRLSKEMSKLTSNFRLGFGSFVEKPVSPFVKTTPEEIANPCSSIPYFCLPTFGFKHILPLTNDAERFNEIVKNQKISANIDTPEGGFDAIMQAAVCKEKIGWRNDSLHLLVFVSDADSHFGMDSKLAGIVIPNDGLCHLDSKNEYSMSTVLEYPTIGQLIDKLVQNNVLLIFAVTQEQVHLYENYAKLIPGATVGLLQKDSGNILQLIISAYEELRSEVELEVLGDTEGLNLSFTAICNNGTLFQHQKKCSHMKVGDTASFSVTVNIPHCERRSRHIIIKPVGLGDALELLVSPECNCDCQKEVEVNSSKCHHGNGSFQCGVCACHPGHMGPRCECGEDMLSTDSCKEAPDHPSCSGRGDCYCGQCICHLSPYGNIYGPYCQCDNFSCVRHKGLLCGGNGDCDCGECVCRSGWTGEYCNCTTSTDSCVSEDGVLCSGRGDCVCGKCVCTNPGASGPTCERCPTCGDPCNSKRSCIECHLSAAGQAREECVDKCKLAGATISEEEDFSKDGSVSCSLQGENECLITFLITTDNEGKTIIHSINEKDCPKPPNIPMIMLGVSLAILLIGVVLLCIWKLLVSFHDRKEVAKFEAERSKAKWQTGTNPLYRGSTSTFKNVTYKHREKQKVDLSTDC

B1: Vel-IPV-Ab1 Coil 134 (antibody, part only; not given: Ab1 heavy and light chains, part only)
heavy, part: QGASTSVDELQAEVDQLEDENYAKKTKVAQLRKKVEKLGSIPVSLRSG
light, part: QGASTTVAQLEEKVKTLRAENYEIKSEVQRLEEQVAQLGSIPVSLRSG
For the molecule B1, in experiment [1], the Binding Bmax (OD450) was found to be 0.7 OD450, the EC50 was 14.7 nM and the EC50 fold change from Ab1 turned out to be 67 fold.

B2: Vel-IPV-Ab1 Coil 107 (antibody, part only; not given: Ab1 heavy and light chains, part only)
heavy, part: QGASTSVDELQAEVDQLEDENYASKTKVAQLRKKVEKLGSIPVSLRSG
light, part: QGASTTVAQLEEKVKTLRAENYEFKSEVQRLEEQVAQLGSIPVSLRSG
Turning to B2, in experiment [1], the Binding Bmax (OD450) turned out to be 0.6 OD450, the EC50 is 133 nM and the EC50 fold change from Ab1 was found to be 458 fold. In experiment [2], this molecule registered an EC50 of 2.8 nM and an EC50 fold change from Ab1 of 20 fold.

B3: Vel-IPV-Ab1 Coil 126 (antibody, part only; not given: Ab1 heavy and light chains, part only)
heavy, part: QGASTSVDELQAEVDQLEDENYAYKTKVAQLRKKVEKLGSIPVSLRSG
light, part: QGASTTVAQLEEKVKTLRAENYESKSEVQRLEEQVAQLGSIPVSLRSG
As to B3, in experiment [1], the Binding Bmax (OD450) is 0.7 OD450, the EC50 was 111 nM and the EC50 fold change from Ab1 amounted to 444 fold. In experiment [2], the EC50 amounted to 9.5 nM and the EC50 fold change from Ab1 stood at 68 fold.

B4: Vel-IPV-Ab1 Coil 142 (antibody, part only; not given: Ab1 heavy and light chains, part only)
heavy, part: QGASTSVDELQAEVDQLEDENYALKTKKAQLRKKVEKLGSIPVSLRSG
light, part: QGASTTVAQLEEKVKTLRAENYELKSEIQRLEEQVAQLGSIPVSLRSG
Take B4: in experiment [1], the Binding Bmax (OD450) was 1.8 OD450, the EC50 amounted to 101 nM and the EC50 fold change from Ab1 came out at 461 fold.

B5: Vel-IPV-Ab1 Coil 121 (antibody, part only; not given: Ab1 heavy and light chains, part only)
heavy, part: QGASTSVDELQAEVDQLEDENYAWKTKVAQLRKKVEKLGSIPVSLRSG
light, part: QGASTTVAQLEEKVKTLRAENYEAKSEVQRLEEQVAQLGSIPVSLRSG
With B5, in experiment [1], the Binding Bmax (OD450) is 0.9 OD450, the concentration for a half-maximal effect (EC50) worked out at 140 nM and the EC50 fold change from Ab1 is 562 fold. For the same molecule, in experiment [2], the EC50 came to 132 nM and the EC50 fold change from Ab1 worked out at 943 fold.

B6: Vel-IPV-Ab1 Coil 118 (antibody, part only; not given: Ab1 heavy and light chains, part only)
heavy, part: QGASTSVDELQAEVDQLEDENYAFKTKVAQLRKKVEKLGSIPVSLRSG
light, part: QGASTTVAQLEEKVKTLRAENYESKSEVQRLEEQVAQLGSIPVSLRSG
Take B6: in experiment [1], the Binding Bmax (OD450) stood at 0.8 OD450, the EC50 is 45.2 nM and the EC50 fold change from Ab1 came to 181 fold. In experiment [2], this molecule displayed an EC50 of 16.8 nM and an EC50 fold change from Ab1 of 120 fold.

B7: Vel-IPV-Ab1 Coil 111 (antibody, part only; not given: Ab1 heavy and light chains, part only)
heavy, part: QGASTSVDELQAEVDQLEDENYAGKTKVAQLRKKVEKLGSIPVSLRSG
light, part: QGASTTVAQLEEKVKTLRAENYEFKSEVQRLEEQVAQLGSIPVSLRSG
With B7, in experiment [1], the Binding Bmax (OD450) was determined as 1.3 OD450, the EC50 was 619 nM and the EC50 fold change from Ab1 came to 2140 fold. In experiment [2], the EC50 is 9.1 nM and the EC50 fold change from Ab1 was determined as 65 fold.

B8: Vel-IPV-Ab1 Coil 122 (antibody, part only; not given: Ab1 heavy and light chains, part only)
heavy, part: QGASTSVDELQAEVDQLEDENYAYKTKVAQLRKKVEKLGSIPVSLRSG
light, part: QGASTTVAQLEEKVKTLRAENYEAKSEVQRLEEQVAQLGSIPVSLRSG
As for B8, in experiment [1], the Binding Bmax (OD450) came out at 0.6 OD450, the EC50 was determined as 85.9 nM and the EC50 fold change from Ab1 is 344 fold. In experiment [2], this molecule had an EC50 of 14.5 nM and an EC50 fold change from Ab1 of 104 fold.

B9: Vel-IPV-Ab1 Coil 103 (antibody, part only; not given: Ab1 heavy and light chains, part only)
heavy, part: QGASTSVDELQAEVDQLEDENYAGKTKVAQLRKKVEKLGSIPVSLRSG
light, part: QGASTTVAQLEEKVKTLRAENYEYKSEVQRLEEQVAQLGSIPVSLRSG
Take B9: in experiment [1], the Binding Bmax (OD450) turned out to be 0.6 OD450, the EC50 turned out to be 75.3 nM and the EC50 fold change from Ab1 turned out to be 260 fold. In experiment [2], this molecule came in with an EC50 of 2.1 nM and an EC50 fold change from Ab1 of 15 fold.

B10: Vel-IPV-Ab1 Coil 116 (antibody, part only; not given: Ab1 heavy and light chains, part only)
heavy, part: QGASTSVDELQAEVDQLEDENYAAKTKVAQLRKKVEKLGSIPVSLRSG
light, part: QGASTTVAQLEEKVKTLRAENYEFKSEVQRLEEQVAQLGSIPVSLRSG
Regarding B10, in experiment [1], the Binding Bmax (OD450) was 0.7 OD450, the EC50 was 368 nM and the EC50 fold change from Ab1 was 1270 fold. Further, in experiment [2], the EC50 was found to be 7.5 nM and the EC50 fold change from Ab1 amounted to 54 fold.

B11: Vel-IPV-hB6H12.3 Coil 149 (antibody, part only; not given: hB6H12.3 heavy and light chains, part only)
heavy, part: QGASTSVDELQAEVDQLEDENYAIKTKIAQLRKKVEKLGSIPVSLRSG
light, part: QGASTTVAQLEEKVKTLRAENYEAKSEVQRLEEQVAQLGSIPVSLRSG
On to B11, for which, in the experiment with recombinant human CD47, the Binding Bmax (OD450) was found to be 1.7 OD450, the EC50 was found to be 298 nM and the EC50 fold change from hB6H12.3 amounted to 117 fold.

B12: Vel-IPV-Ab1 Coil 115 (antibody, part only; not given: Ab1 heavy and light chains, part only)
heavy, part: QGASTSVDELQAEVDQLEDENYAWKTKVAQLRKKVEKLGSIPVSLRSG
light, part: QGASTTVAQLEEKVKTLRAENYEYKSEVQRLEEQVAQLGSIPVSLRSG
As for B12, in experiment [1], the Binding Bmax (OD450) came to 1 OD450, the EC50 amounted to 184 nM and the EC50 fold change from Ab1 came to 633 fold. Besides, in experiment [2], the EC50 came out at 152 nM and the EC50 fold change from Ab1 worked out at 1090 fold.

B13: Vel-IPV-hB6H12.3 Coil 164 (antibody, part only; not given: hB6H12.3 heavy and light chains, part only)
heavy, part: QGASTSVDELQAEVDQLEDENYASKTKVAQQRKKVEKLGSIPVSLRSG
light, part: QGASTTVAQLEEKVKTLRAENYERKSEVQRVEEQVAQLGSIPVSLRSG
B13: in the experiment with recombinant human CD47, the Binding Bmax (OD450) was 1.5 OD450, the EC50 worked out at 21.5 nM and the EC50 fold change from hB6H12.3 turned out to be 8 fold.

B14: Vel-IPV-Ab1 Coil 129 (antibody, part only; not given: Ab1 heavy and light chains, part only)
heavy, part: QGASTSVDELQAEVDQLEDENYASKTKVAQLRKKVEKLGSIPVSLRSG
light, part: QGASTTVAQLEEKVKTLRAENYEYKSEVQRLEEQVAQLGSIPVSLRSG
On to B14, for which, in experiment [1], the Binding Bmax (OD450) was 0.6 OD450, the EC50 is 76.6 nM and the EC50 fold change from Ab1 is 306 fold. For the same molecule, in experiment [2], the EC50 is 2.6 nM and the EC50 fold change from Ab1 amounted to 19 fold.

B15: Vel-IPV-Ab1 Coil 110 (antibody, part only; not given: Ab1 heavy and light chains, part only)
heavy, part: QGASTSVDELQAEVDQLEDENYAGKTKVAQLRKKVEKLGSIPVSLRSG
light, part: QGASTTVAQLEEKVKTLRAENYEWKSEVQRLEEQVAQLGSIPVSLRSG
As for B15, in experiment [1], the Binding Bmax (OD450) amounted to 1 OD450, the EC50 is 548 nM and the EC50 fold change from Ab1 came out at 1890 fold. In experiment [2], this molecule came in with an EC50 of 42.9 nM and an EC50 fold change from Ab1 of 306 fold.

B16: Vel-IPV-Ab1 Coil 145 (antibody, part only; not given: Ab1 heavy and light chains, part only)
heavy, part: QGASTSVDELQAEVDQLEDENYALKTKIAQLRKKVEKLGSIPVSLRSG
light, part: QGASTTVAQLEEKVKTLRAENYEAKSEVQRLEEQVAQLGSIPVSLRSG
Regarding B16, in experiment [1], the Binding Bmax (OD450) was 1.2 OD450, the EC50 turned out to be 69.6 nM and the EC50 fold change from Ab1 worked out at 290 fold.

B17: Vel-IPV-Ab1 Coil 124 (antibody, part only; not given: Ab1 heavy and light chains, part only)
heavy, part: QGASTSVDELQAEVDQLEDENYASKTKVAQLRKKVEKLGSIPVSLRSG
light, part: QGASTTVAQLEEKVKTLRAENYEWKSEVQRLEEQVAQLGSIPVSLRSG
For the molecule B17, in experiment [1], the Binding Bmax (OD450) amounted to 0.6 OD450, the EC50 was 129 nM and the EC50 fold change from Ab1 worked out at 517 fold. In experiment [2], this molecule displayed an EC50 of 14.1 nM and an EC50 fold change from Ab1 of 10 fold.

B18: Vel-IPV-Ab1 Coil 117 (antibody, part only; not given: Ab1 heavy and light chains, part only)
heavy, part: QGASTSVDELQAEVDQLEDENYAFKTKVAQLRKKVEKLGSIPVSLRSG
light, part: QGASTTVAQLEEKVKTLRAENYEWKSEVQRLEEQVAQLGSIPVSLRSG
As for B18, in experiment [1], the Binding Bmax (OD450) was 1.1 OD450, the EC50 came out at 322 nM and the EC50 fold change from Ab1 is 1110 fold. In experiment [2], this molecule yielded an EC50 of 144 nM and an EC50 fold change from Ab1 of 1030 fold.

B19: Vel-IPV-Ab1 Coil 138 (antibody, part only; not given: Ab1 heavy and light chains, part only)
heavy, part: QGASTSVDELQAEVDQLEDENYALKTKLAQLRKKVEKLGSIPVSLRSG
light, part: QGASTTVAQLEEKVKTLRAENYELKSEIQRLEEQVAQLGSIPVSLRSG
On to B19, for which, in experiment [1], the Binding Bmax (OD450) was 1.8 OD450, the 50% effective concentration (EC50) worked out at 117 nM and the EC50 fold change from Ab1 was found to be 532 fold.

B20: Vel-IPV-Ab1 Coil 114 (antibody, part only; not given: Ab1 heavy and light chains, part only)
heavy, part: QGASTSVDELQAEVDQLEDENYAWKTKVAQLRKKVEKLGSIPVSLRSG
light, part: QGASTTVAQLEEKVKTLRAENYEFKSEVQRLEEQVAQLGSIPVSLRSG
Regarding B20, in experiment [1], the Binding Bmax (OD450) amounted to 1.1 OD450, the EC50 stood at 278 nM and the EC50 fold change from Ab1 was 959 fold. Also, in experiment [2], the EC50 came out at 59.3 nM and the EC50 fold change from Ab1 was 423 fold.

B21: Vel-IPV-Ab1 Coil 137 (antibody, part only; not given: Ab1 heavy and light chains, part only)
heavy, part: QGASTSVDELQAEVDQLEDENYAVKTKVAQLRKKVEKLGSIPVSLRSG
light, part: QGASTTVAQLEEKVKTLRAENYELKSEVQRLEEQVAQLGSIPVSLRSG
As for B21, in experiment [1], the Binding Bmax (OD450) was 1.2 OD450, the concentration giving a half-maximal response (EC50) is 128 nM and the EC50 fold change from Ab1 came to 584 fold.

B22: Vel-IPV-Ab1 Coil 151 (antibody, part only; not given: Ab1 heavy and light chains, part only)
heavy, part: QGASTSVDELQAEVDQLEDENYALKTKLAQLRKKVEKLGSIPVSLRSG
light, part: QGASTTVAQLEEKVKTLRAENYELKSELQRLEEQVAQLGSIPVSLRSG
Consider B22, for which, in experiment [1], the Binding Bmax (OD450) was determined as 1.5 OD450, the EC50 was 198 nM and the EC50 fold change from Ab1 came to 827 fold.

B23: Vel-IPV-Ab1 Coil 106 (antibody, part only; not given: Ab1 heavy and light chains, part only)
heavy, part: QGASTSVDELQAEVDQLEDENYAYKTKVAQLRKKVEKLGSIPVSLRSG
light, part: QGASTTVAQLEEKVKTLRAENYEFKSEVQRLEEQVAQLGSIPVSLRSG
For the molecule B23, in experiment [1], the Binding Bmax (OD450) worked out at 0.8 OD450, the EC50 is 190 nM and the EC50 fold change from Ab1 came to 657 fold. In experiment [2], the EC50 was 38.4 nM and the EC50 fold change from Ab1 was found to be 274 fold.

B24: Vel-IPV-Ab1 Coil 149 (antibody, part only; not given: Ab1 heavy and light chains, part only)
heavy, part: QGASTSVDELQAEVDQLEDENYAIKTKIAQLRKKVEKLGSIPVSLRSG
light, part: QGASTTVAQLEEKVKTLRAENYEAKSEVQRLEEQVAQLGSIPVSLRSG
In the case of B24, in experiment [1], the Binding Bmax (OD450) amounted to 1.1 OD450, the EC50 is 43.6 nM and the EC50 fold change from Ab1 came to 182 fold.
